Measurements published in paper PMC13379383.

Molecular target: thrombin (human, UniProt P00734;P00734 328-363;364-622)
Experiment: AuNP aggregation (plasmonic scattering); 16 nM thrombin, 4.59 uM TBA, 0.1 M NaCl, pH 7.4; LoD 0.5 nM (not a Kd)

B1: TBA (thrombin-binding aptamer) (ssDNA)
DNA: AGTCCGTGGTAGGGCAGGTTGGGGTGACT
modifications: 5'-amine C6 linker
B1: binds.
